# T1: human ANGPTL8 peptide (hANGPTL8 peptide, SEQ ID NO: 337) (human)
# T1 construct: also called N-terminal region ANGPTL8 peptide
# T1 peptide: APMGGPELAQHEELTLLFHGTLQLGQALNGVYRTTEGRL
# T2: peptide from the N-terminal coiled-coil region of human ANGPTL3 (hANGPTL3 peptide, SEQ ID NO: 338) (human)
# T2 construct: also called hANGPTL3 shift peptide
# T2 peptide: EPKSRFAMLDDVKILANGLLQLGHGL
# T3: peptide from the N-terminal coiled-coil region of human ANGPTL4 (hANGPTL4 peptide, SEQ ID NO: 339) (human)
# T3 peptide: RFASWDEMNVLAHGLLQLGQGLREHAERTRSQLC
# T4: monkey ANGPTL8 expressed with C-terminal mouse IgG2a Fc tag (MfANGPTL8-mFc; SEQ ID NO: 341) (cynomolgus monkey)
# T4 construct: also called cynomolgus monkey ANGPTL8
# T4 chain: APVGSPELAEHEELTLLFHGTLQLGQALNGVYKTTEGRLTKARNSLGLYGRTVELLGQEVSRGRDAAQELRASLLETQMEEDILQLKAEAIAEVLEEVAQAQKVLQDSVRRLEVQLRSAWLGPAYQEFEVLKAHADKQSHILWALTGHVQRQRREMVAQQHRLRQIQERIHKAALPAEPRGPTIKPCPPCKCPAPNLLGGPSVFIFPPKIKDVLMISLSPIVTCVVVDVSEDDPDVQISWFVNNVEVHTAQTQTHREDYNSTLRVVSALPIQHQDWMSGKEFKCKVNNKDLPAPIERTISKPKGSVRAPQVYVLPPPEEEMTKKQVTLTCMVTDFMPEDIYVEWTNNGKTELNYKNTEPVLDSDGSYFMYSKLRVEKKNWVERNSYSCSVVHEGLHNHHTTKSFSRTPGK
# T5: human ANGPTL8 expressed with C-terminal mouse IgG2a Fc tag (hANGPTL8-mFc; SEQ ID NO: 340) (human)
# T5 construct: also called Angiopoietin-like protein 8
# T5 chain: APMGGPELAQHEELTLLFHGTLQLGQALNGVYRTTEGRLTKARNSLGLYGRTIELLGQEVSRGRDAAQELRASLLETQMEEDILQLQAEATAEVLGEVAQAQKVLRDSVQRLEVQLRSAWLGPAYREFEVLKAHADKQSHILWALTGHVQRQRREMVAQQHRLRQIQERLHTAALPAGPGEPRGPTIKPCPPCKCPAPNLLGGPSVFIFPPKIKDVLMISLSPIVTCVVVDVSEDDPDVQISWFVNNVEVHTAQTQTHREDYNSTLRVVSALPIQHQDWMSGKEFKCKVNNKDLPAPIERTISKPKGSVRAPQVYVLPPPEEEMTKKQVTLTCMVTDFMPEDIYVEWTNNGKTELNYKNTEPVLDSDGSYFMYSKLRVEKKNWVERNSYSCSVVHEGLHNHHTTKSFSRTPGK
# B1: H4H15318P (antibody, human IgG4, V domains shown)
# VH: QVQLVESGGGVVQPGRSLRLSCTASGFTFGNFGIHWVRQAPGKGLEWVAVISYDGTDKFYADPVKGRFIISRDNSMNILYLQMNSLRAEDTAVYYCAKDGEMELRGYYYYYGMDVWGQGTTVTVSS
# VL: DIQMTQSPSSVSASVGDRVTITCRASQGINTWLAWYQQKPGTAPKLLIFAASSLESGVPSRFSGSGFGTDFTLTISSLQSEDLATYFCQQVHSPPYTFGQGTKLEIK
# notes: H4H prefix: human IgG4 Fc
# B2: H4H15350P2 (antibody, human IgG4, V domains shown)
# VH: EVQLVESGGGLVQPGGSLRLSCAASGFTFSSFRMTWVRQAPGKGLEWVANIKQDGSEKYYVDSVKGRFTISRDNAKNSLYLQMNSLRAEDTAVYYCARGGGIAAYWGQGTLVTVSS
# VL: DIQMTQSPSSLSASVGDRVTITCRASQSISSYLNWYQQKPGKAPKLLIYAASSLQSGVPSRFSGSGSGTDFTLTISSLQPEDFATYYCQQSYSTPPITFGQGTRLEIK
# notes: H4H prefix: human IgG4 Fc
# B3: H4H15345P (antibody, human IgG4, V domains shown)
# VH: EVQLVESGGGLVQPGGSLRLSCAASGFTFSTYAMSWVRQAPGKGLEWVSVISGSFISTYYADSVKGRFTISRDNSKNTLYLQMTSLRAEDTAVYYCAKNSPFDYWGQGTLVTVSS
# VL: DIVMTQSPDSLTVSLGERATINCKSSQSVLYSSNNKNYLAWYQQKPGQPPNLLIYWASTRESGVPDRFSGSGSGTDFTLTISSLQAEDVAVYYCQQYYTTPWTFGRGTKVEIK
# notes: H4H prefix: human IgG4 Fc
# B4: H4H15319P (antibody, human IgG4, V domains shown)
# VH: EVQLVESGGGVVRPGGSLRLSCAASGFTVDDYDMSWVRQTPGKGLEWISGINWNGGNTGYADSVKGRFIISRDSAKNSLFLQMNSLRAEDTALYHCWGAIGAFDIWGQGTMVTVSS
# VL: DIVMTQSPLSSPVTLGQPASISCRSSQSLVHSDGGTYLSWLQQRPGQPPRLLIYKIFNRFSGVPDRFSGSGAGTDFTLRISRVEAEDVGVYYCMQTTQFPLTFGGGTKVEIK
# notes: H4H prefix: human IgG4 Fc
# B5: H4H15323P (antibody, human IgG4, V domains shown)
# VH: EVQLVESGGGLVQPGGSLRLSCAASGFTFSSYAMTWVRQAPGKGLEWVSAISGSGGSTYYTDSVKGRFTLSRDNSKNTLYLQMNSLRAEDTAVYYCAKSDYSNTIYWYYGMDVWGQGTTVTVSS
# VL: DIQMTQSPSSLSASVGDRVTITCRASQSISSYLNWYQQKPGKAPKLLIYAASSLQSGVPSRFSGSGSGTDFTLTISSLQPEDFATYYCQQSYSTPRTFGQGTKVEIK
# notes: H4H prefix: human IgG4 Fc
# B6: H4H15346P (antibody, human IgG4, V domains shown)
# VH: EVQLVESGGGLVQPGGSLRLSCAASGFTFSNYAMSWVRQAPGKGLEWVSTISDTGGSTYYADSVKGRFALSRDNSRNTLYLQMNSLRAEDTAVYYCAKEGPPDYWGQGTLVTVSS
# VL: EIVLTQSPATLSLSPGERATLSCRTSQSVSIYLAWYQQKPGQAPRLLIYDASKRATGIPARFSGRGSGTDFTLTISSLEPEDFAVYYCQQRSNWPLTFGQGTRLEIK
# notes: H4H prefix: human IgG4 Fc
# B7: H4H15343P (antibody, human IgG4, V domains shown)
# VH: QVQLVESGGGVVQPGRSLRLSCAASGFTFSSYGMHWVRQAPGKGLEWVAVISYAGSNKYYADSVKGRFTISRDNSKNTLYLQMNGLRAEDTAVYYCAKDPYGDYEGVLDYWGQGTLVTVSS
# VL: DIQMTQSPSSLSASVGDRVTITCQASQDISNYLNWYQQKPGKAPKLLIYDASNLETGVPSRFSGSGSGTDFTFTISSLQPEDIATYYCQQYDHLPITFGQGTRLEIK
# notes: H4H prefix: human IgG4 Fc
# Molecular target: T1, human ANGPTL8 peptide (hANGPTL8 …)
# Experiment: SPR, captured mAb, 500 nM peptide, 25C
# Experimental: (§1) The assay utilized a format where ANGPTL8 antibodies were captured on the sensor surface and peptides were injected over the antibody surface. Peptides from the N-terminal coiled-coil region of human ANGPTL3 (hANGPTL3 peptide, SEQ ID NO: 338) and human ANGPTL4 (hANGPTL4 peptide, SEQ ID NO: 339) were also included as controls. Also included was a control antibody (H4H268P from US2011/0159015A1) that binds to the ANGPTL4 peptide and a negative isotype control antibody. All binding studies were performed in 10 mM HEPES pH 7.4, 150 mM NaCl, 3 mM EDTA, and 0.05% v/v Surfactant Tween-20 (HBS-ET running buffer) at 25° C. The HCA sensor surface was derivatized via amine coupling to a monoclonal mouse anti-human Fc antibody (GE, # BR-1008-39), and to this surface was captured approximately 1000 RU of each ANGPTL8 antibody or control antibody. Peptide stock solutions were diluted in HBS-ET running buffer to 500 nM and injected over the antibody-captured surfaces for 4 minutes at a flow rate of 30 μL/minute followed by the dissociation of bound peptide in HBS-ET running buffer for 10 minutes.
# (§2) Dissociative half-lives (t½) were calculated from kd as: […]
Binder,500 nM hANGPTL8 peptide Bound (RU),binding result,koff [s⁻¹],t½ [h]
B1,0,no binding (tested: <9 RU at 500 nM peptide),,
B2,0,no binding (tested: <9 RU at 500 nM peptide),,
B3,37,,2.03e-05,9.5
B4,0,no binding (tested: <9 RU at 500 nM peptide),,
B5,0,no binding (tested: <9 RU at 500 nM peptide),,
B6,0,no binding (tested: <9 RU at 500 nM peptide),,
B7,0,no binding (tested: <9 RU at 500 nM peptide),,

# Molecular target: T2, peptide from the N-terminal coiled-coil …
# Experiment: SPR, captured mAb, 500 nM peptide, 25C
# Experimental: as §1, §2
Binder,500 nM hANGPTL3 peptide Bound (RU),binding result
B1,0,no binding (tested: <9 RU at 500 nM peptide)
B2,0,no binding (tested: <9 RU at 500 nM peptide)
B3,0,no binding (tested: <9 RU at 500 nM peptide)
B4,0,no binding (tested: <9 RU at 500 nM peptide)
B5,0,no binding (tested: <9 RU at 500 nM peptide)
B6,0,no binding (tested: <9 RU at 500 nM peptide)
B7,0,no binding (tested: <9 RU at 500 nM peptide)

# Molecular target: T3, peptide from the N-terminal coiled-coil …
# Experiment: SPR, captured mAb, 500 nM peptide, 25C
# Experimental: as §1, §2
Binder,500 nM hAngPTL4 peptide Bound (RU),binding result
B1,0,no binding (tested: <9 RU at 500 nM peptide)
B2,0,no binding (tested: <9 RU at 500 nM peptide)
B3,0,no binding (tested: <9 RU at 500 nM peptide)
B4,0,no binding (tested: <9 RU at 500 nM peptide)
B5,0,no binding (tested: <9 RU at 500 nM peptide)
B6,0,no binding (tested: <9 RU at 500 nM peptide)
B7,0,no binding (tested: <9 RU at 500 nM peptide)

# Molecular target: T6, anti-mFc (AMC) Octet biosensor, blank
# T6 construct: Sensor without captured protein, used as blank; also called Blank AMC Sensor
# Experiment: BLI Octet, blank AMC sensor, 100 nM mAb, 25C
# Experimental: (§3) Binding of ANGPTL8 antibodies to human and monkey ANGPTL8 proteins was investigated using Bio-layer Interferometry with an Octet HTX biosensor platform (ForteBio, A Division of Pall Life Sciences). All experiments were performed at 25° C. in 10 mM HEPES pH 7.4, 150 mM NaCl, 0.05% v/v Surfactant Tween-20, and 1 mg/ml BSA with the reaction multiwell plate agitated at 1000 rpm. Approximately 1.6 nm of human ANGPTL8 produced with a C-terminal mouse IgG2a Fc tag (hANGPTL8-mFc; SEQ ID NO: 340) or cynomolgus monkey ANGPTL8 produced with a C-terminal mouse IgG2a Fc tag (MfANGPTL8-mFc; SEQ ID NO: 341) was captured onto anti-mFc (AMC) Octet biosensors by submerging the sensors into wells containing 10 μg/mL of each protein for 4 minutes. Under the same conditions a negative control protein with the same mFc tag (hLDLR-mFc) was also coupled to the AMC sensor. All four sensors, […] and one blank, were then submerged into wells containing 100 nM of different ANGPTL8 monoclonal antibodies or an isotype control for 4 minutes.
row,Binder,mAb Binding Response (nm)
1,B1,0.01
2,B2,-0.01
3,B3,0.01
4,B4,0
5,B5,0
6,B6,-0.01
7,B7,0.01

# Molecular target: T7, negative control protein with the same mFc tag (hLDLR-mFc) (human; mouse, UniProt P01130 22-788, limits assumed)
# T7 construct: also called Irrelevant control; not shown: mouse IgG2a Fc tag (same mFc tag as hANGPTL8-mFc)
# T7 sequence (P01130 22-788 limits assumed): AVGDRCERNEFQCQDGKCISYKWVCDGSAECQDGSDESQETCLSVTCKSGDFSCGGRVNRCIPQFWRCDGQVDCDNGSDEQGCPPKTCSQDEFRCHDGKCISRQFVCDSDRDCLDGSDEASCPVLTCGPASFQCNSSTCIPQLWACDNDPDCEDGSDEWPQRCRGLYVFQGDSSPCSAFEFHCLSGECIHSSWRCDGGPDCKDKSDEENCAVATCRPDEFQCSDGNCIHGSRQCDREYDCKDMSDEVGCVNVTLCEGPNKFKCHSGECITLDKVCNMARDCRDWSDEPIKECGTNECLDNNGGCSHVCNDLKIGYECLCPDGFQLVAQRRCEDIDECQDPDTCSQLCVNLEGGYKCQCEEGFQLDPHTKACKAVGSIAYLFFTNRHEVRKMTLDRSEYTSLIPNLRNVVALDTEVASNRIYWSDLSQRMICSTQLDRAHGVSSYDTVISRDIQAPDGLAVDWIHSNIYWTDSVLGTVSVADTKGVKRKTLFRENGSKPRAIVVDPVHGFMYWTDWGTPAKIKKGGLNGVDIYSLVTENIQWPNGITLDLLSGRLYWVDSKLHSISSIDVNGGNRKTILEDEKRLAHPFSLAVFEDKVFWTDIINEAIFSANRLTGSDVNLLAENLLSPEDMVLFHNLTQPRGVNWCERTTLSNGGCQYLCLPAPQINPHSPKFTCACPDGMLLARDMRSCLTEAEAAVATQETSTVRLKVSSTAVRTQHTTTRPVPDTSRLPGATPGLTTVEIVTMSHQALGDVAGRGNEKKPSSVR
# Experiment: BLI Octet, captured antigen, 100 nM mAb, 25C
# Experimental: as §3
row,Binder,mAb Binding Response (nm)
1,B1,0.01
2,B2,0
3,B3,0
4,B4,-0.01
5,B5,0
6,B6,0
7,B7,-0.01

# Molecular target: T4, monkey ANGPTL8 expressed with …
# Experiment: BLI Octet, captured antigen, 100 nM mAb, 25C
# Experimental: as §3
row,Binder,mAb Binding Response (nm)
1,B1,0.2
2,B2,0.2
3,B3,0.31
4,B4,0.26
5,B5,0.15
6,B6,0.01
7,B7,0.2

# Molecular target: T5, human ANGPTL8 expressed with C-terminal …
# Experiment: BLI Octet, captured antigen, 100 nM mAb, 25C
# Experimental: as §3
row,Binder,mAb Binding Response (nm)
1,B1,0.19
2,B2,0.17
3,B3,0.25
4,B4,0.22
5,B5,0.18
6,B6,0.07
7,B7,0.17

# Reference: patent US20170037124A1 (Regeneron, published 2017)
